21 molecules from US20240336681A1 (LUDWIG MAXIMILIANS UNIVERSIT T M NCHEN, published 2024) can be followed below.

A word on the Kd: it is the constant that tells how readily two partners part at equilibrium. For orientation: koff means the first-order rate constant of dissociation. For orientation: kon means a measure of how fast the partners come together.

The chains are these.
B1: 2D6-046 (bispecific antibody, part only; not given: linkers and anti-TAA IgG1 chains, V domains shown, not shown: another chain or arm of the molecule; large carriers; small tags and cut ends)
VH: QVELVQSGPEVKKPGSSVKVSCKASGYTFPSYDINWVRQRPGQGLEWMGWIYPRDGSPKYNEKFKGRVTITADTSTSTAYMELHSLRSEDTAVYYCARSVYYGTQFAYWGQGTLVTVSA
VL: DIVLTQSPSSLAVSLGERVTMSCKSSQSLLNSRTRKNYLAWYQQKPGQPPKLLIYWASTRDSGVPDRFSGSGSGTDFTLTISSLQAEDVAVYYCQQSFNLVTFGGGTKLEIK
B2: 2D6-037 (bispecific antibody, part only; not given: linkers and anti-TAA IgG1 chains, V domains shown, not shown: another chain or arm of the molecule; large carriers; small tags and cut ends)
VH: B1 VH with D55F
VL: B1 VL with Q95K
B3: 2D6-036 (bispecific antibody, part only; not given: linkers and anti-TAA IgG1 chains, V domains shown, not shown: another chain or arm of the molecule; large carriers; small tags and cut ends)
VH: B1 VH with Y52I
VL: B1 VL with Q95K
B4: 2D6-076 (antibody, IgG1, V domains shown)
VH: B1 VH
VL: B1 VL
notes: hIgG1 (humanized IgG1); only the variable domains are tied to the construct; also called VH2/VL2.7
B5: 2D6-067 (antibody, IgG1, V domains shown)
VH: B1 VH with D55F
VL: B1 VL with L4M, Q95K
notes: hIgG1 (humanized IgG1); only the variable domains are tied to the construct; also called VH2.5/VL2
B6: 2D6-005 (antibody, IgG4, V domains shown)
VH: B1 VH
VL: DIVLTQSPSSLSASVGDRVTMSCKSSQSLLNSRTRKNYLAWYQQKPGKAPKLLIYWASTRDSGVPSRFSGSGSGTDFTLTISSLQPEDIATYYCKQSFNLVTFGGGTKLEIK
notes: hIgG4 (humanized IgG4), human kappa constant light chain from vector; only the variable domains are tied to the construct; also called VH2/VL1
B7: 2D6-066 (antibody, IgG1, V domains shown)
VH: B1 VH with Y52I
VL: B1 VL with L4M, Q95K
notes: hIgG1 (humanized IgG1); only the variable domains are tied to the construct; also called VH2.4/VL2
B8: 2D6-000 (antibody, V domains shown)
VH: QVQLQQSGPELVKPGTSVTLSCKASGYTFPSYDINWMKQRPGQGLEWIGWIYPRDGSPKYNEKFKGKATLTVDTSSSTAYMELHSLTSEDSAVYFCARSVYYGTQFAYWGQGTLVTVSA
VL: DIVMSQSPSSLAVSAGEKVTMSCKSSQSLLNSRTRKNYLAWYQQKPGQSPKLLIYWASTRDSGVPDRFTGSGSGTDFTLTISSVQAEDLAVYYCKQSFNLVTFGAGTKLELK
notes: Constant regions come from the vectors pFUSE-CHIg-hG4 and pFUSE2-CLIg-hk; also called anti-CD47 IgG4 (2D6-000)
B9: 2D6-002 (antibody, IgG4, V domains shown)
VH: B1 VH with P9A, Y27G, R40A, T74E, H84S, A119S
VL: B1 VL with L4M, Q95K
notes: also called VH1/VL2
B10: 2D6-001 (antibody, IgG4, V domains shown)
VH: B1 VH with P9A, Y27G, R40A, T74E, H84S, A119S
VL: B6 VL
notes: also called VH1/VL1
B11: 2D6-004 (antibody, IgG4, V domains shown)
VH: B1 VH with P9A, Y27G, R40A, T74E, H84S, A119S
VL: B6 VL with L4M, M21I, S22T, S66D, I89F, G105Q, L109V
notes: also called VH1/VL4
B12: 2D6-003 (antibody, IgG4, V domains shown)
VH: B1 VH with P9A, Y27G, R40A, T74E, H84S, A119S
VL: B6 VL with V3Q, L4M, M21I, S22T, I89F, G105Q, L109V
notes: also called VH1/VL3
B13: 2D6-014 (antibody, IgG4, V domains shown)
VH: QVQLVESGGGLVQPGGSLRLSCAASGYTFPSYDINWVRQAPGKGLEWVGWIYPRDGSPKYNEKFKGRFTISADTSKNTAYLQMNSLRAEDTAVYYCARSVYYGTQFAYWGQGTLVTVSS
VL: B1 VL with L4M, Q95K
notes: also called VH4/VL2
B14: 2D6-010 (antibody, IgG4, V domains shown)
VH: B13 VH with P30T
VL: B1 VL with L4M, Q95K
notes: also called VH3/VL2
B15: 2D6-013 (antibody, IgG4, V domains shown)
VH: B13 VH
VL: B6 VL
notes: also called VH4/VL1
B16: 2D6-006 (antibody, IgG4, V domains shown)
VH: B1 VH
VL: B1 VL with L4M, Q95K
notes: also called VH2/VL2
B17: 2D6-009 (antibody, IgG4, V domains shown)
VH: B13 VH with P30T
VL: B6 VL
B18: 2D6-008 (antibody, IgG4, V domains shown)
VH: B1 VH
VL: B6 VL with L4M, M21I, S22T, S66D, I89F, G105Q, L109V
notes: also called VH2/VL4
B19: 2D6-007 (antibody, IgG4, V domains shown)
VH: B1 VH
VL: B6 VL with V3Q, L4M, M21I, S22T, I89F, G105Q, L109V
notes: also called VH2/VL3
B20: 2D6-011 (antibody, IgG4, V domains shown)
VH: B13 VH with P30T
VL: B6 VL with V3Q, L4M, M21I, S22T, I89F, G105Q, L109V
notes: also called VH3/VL3
B21: 2D6-012 (antibody, IgG4, V domains shown)
VH: B13 VH with P30T
VL: B6 VL with L4M, M21I, S22T, S66D, I89F, G105Q, L109V
notes: also called VH3/VL4

Positions count from the first letter of the chain named.

T2 sequence (Q08722 19-323): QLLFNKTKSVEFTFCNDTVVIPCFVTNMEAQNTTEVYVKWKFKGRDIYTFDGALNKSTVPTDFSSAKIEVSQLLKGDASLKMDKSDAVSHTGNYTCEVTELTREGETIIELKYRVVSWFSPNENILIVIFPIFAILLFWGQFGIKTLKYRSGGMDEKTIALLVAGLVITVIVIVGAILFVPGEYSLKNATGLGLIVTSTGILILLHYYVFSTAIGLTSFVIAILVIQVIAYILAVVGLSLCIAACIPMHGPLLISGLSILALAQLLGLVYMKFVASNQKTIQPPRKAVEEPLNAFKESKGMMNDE

For one experiment, the target named is recombinant C-terminally His-tagged human CD47 (extracellular domain) (human) (UniProt Q08722). Kind of experiment: SPR, Biacore X100; construct captured by anti-human Fc on CM5 chip, human CD47 extracellular domain as analyte, 1:1 fit.
recombinant C-terminally His-tagged human CD47 (extracellular domain) (human), sequence (Q08722 19-141): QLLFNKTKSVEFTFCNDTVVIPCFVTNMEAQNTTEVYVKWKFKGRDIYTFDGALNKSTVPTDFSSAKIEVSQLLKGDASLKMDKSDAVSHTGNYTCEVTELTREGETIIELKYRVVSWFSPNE
Take B1: the Kd was found to be 406 nM. Same read-out and setting: to B2 belongs 176 nM.

B3: the Kd amounted to 1110 nM.

The next experiment deals with T1, recombinant C-terminally His-tagged human CD47 (extracellular domain) (human, UniProt Q08722 19-141).
T1 construct: also called recombinantly expressed human CD47 extracellular domain
T1 sequence (Q08722 19-141): as above
Described as above. The procedure:
(§1) Surface Plasmon Resonance (SPR) was used in addition to analyse binding of the different protein constructs to recombinantly expressed CD47 and to determine their affinity. Association (Kₒₙ) and dissociation (Koff) rate constants were determined by SPR using a Biacore™ X-100 (Cytiva). Using the Human antibody capture kit an anti-human Fc antibody was immobilized on a CM5 sensor chip in a covalent manner using the Amine coupling Kit according to manufacturer's instructions. Humanized anti-hCD47 IgGs were injected as ligand to reach a surface coverage of approximately 100 RU-400 RU. Recombinantly expressed human CD47 extracellular domain was used as analyte and injected in increasing concentrations (e. g. from 3.9 to 1000 nM), with standard association time of 120 s and dissociation time of 600 s. Experiments were performed in multi-cycle kinetics runs, with regeneration between sample injection with the respective regeneration buffer (3M MgCl2 for the human antibody capture kit). All reagents were diluted in HBS-EP+ buffer (Cytiva). Data are fit to a simple 1:1 interaction model using the global data analysis option available within BiaEvaluation 2.0.1 software. The dissociation constant (KD) was used as a value for the affinity and was calculated from the ratio between Koff and Kₒₙ.
For B4, the Kd stood at 974 nM. As for B5, the Kd is 219 nM.

In the case of B6, the Kd stood at 176 nM. Same read-out and setting: to B7 belongs 1320 nM. On the same count and under the same terms, under B8 stands 56.1 nM.

A further experiment addresses T2, human CD47 on cells (human, UniProt Q08722 19-323).
T2 construct: also called CD47 on Molm-13, OVCAR-3, Suit-2 MSLN, HL-60 cells, red blood cells and CD47-transfected CHO cells
Put plainly: flow cytometry on CD47-positive Expi293 cells; MFI of the antibody over MFI of the isotype control. The protocol:
(§2) Initially, binding of anti-hCD47 IgG4, anti-hCD47 IgG1 antibodies and Fab domains were measured on CD47-expressing cells by flow cytometry. Cells were stained with 50 nM of antibody followed by staining with a secondary fluorescently labelled anti-human IgG Fc or light-chain antibody, and analyzed by flow cytometry. Binding was measured by calculating the median fluorescence intensity (MFI) ratio, by dividing MFI of the antibody by the MFI of the isotype control.
On the technique in general: In flow cytometry, cells or beads pass a laser one at a time.
For the molecule B9, the binding result is on record as “no binding (tested: 50 nM (not on the sheet))”. B10: the binding result is listed as “no binding (tested: 50 nM (not on the sheet))”. Same read-out and setting: under B11 stands “no binding (tested: 50 nM (not on the sheet))”; under B12, “no binding (tested: 50 nM (not on the sheet))”.

For B13, the binding result was “no binding (tested: 50 nM (not on the sheet))”. The same measure, in the same setting: under B14 stands “no binding (tested: 50 nM (not on the sheet))”.

For the molecule B15, the binding result is listed as “no binding (tested: 50 nM (not on the sheet))”.

For a further experiment, the target named is T1, recombinant C-terminally His-tagged …. Put plainly: SPR, Biacore X100; antibody captured by anti-human Fc on a CM5 chip, CD47 extracellular domain as analyte, 1:1 fit. The procedure:
as §1
As for B4, the Kd turned out to be 970 nM, the koff is 0.48 s⁻¹ and the kon was 490000 M⁻¹ s⁻¹. For B5, in that order: 219 nM, 0.16 s⁻¹ and 720000 M⁻¹ s⁻¹. As to B6, the Kd is 170 nM, the koff stood at 0.13 s⁻¹ and the kon came to 760000 M⁻¹ s⁻¹.

On to B7, for which the Kd was 1310 nM, the off-rate constant (koff) stood at 0.32 s⁻¹ and the kon amounted to 250000 M⁻¹ s⁻¹.

A further experiment concerns the target T2, human CD47 on cells. Kind of experiment: flow cytometry on CD47-positive Expi293 cells, 50 nM antibody; MFI of the antibody over MFI of the isotype control. The procedure:
as §2
For the molecule B9, the MFI ratio is 1.06. Same read-out and setting: under B16 stands 3.12; under B6, 4.95; under B17, 1.58. On the same count and under the same terms, to B10 belongs 1.15. With B11, the MFI ratio turned out to be 1.07. Still for that read-out and setting: under B18 stands 3.29; under B12, 1.06; under B13, 1.03.

Take B19: the MFI ratio amounted to 3.92. Still for that read-out and setting: under B14 stands 1.08; under B15, 1.05. Same read-out and setting: to B20 belongs 4.51; to B21, 4.1.
